Laboratory results: publication PMC10885436, “A novel AA14 LPMO from Talaromyces rugulosus with bifunctional cellulolytic/hemicellulolytic activity boosted cellulose hydrolysis” (Biotechnology for Biofuels and Bioproducts, 2024)

Substrate: COc1cccc(OC)c1O
Experiment: purified protein
Format: biochemical, Talaromyces rugulosus
Conditions: co-substrate H2O2 fixed at 100 uM (below its Km, authors call kinetics insufficient), Cu(II)-saturated enzyme, 100 mM sodium phosphate pH 7.0, 37 C

B1: TrAA14A (Talaromyces rugulosus) (protein)
chain: HVVAWHPGMYCLGGNDTSVDDPNTNLAVNPLWDLPKSKWWFQADRGCDKAPPVDGVFLELPAGQNFTTELAHNRAQTTLSFNGQYAGEWPDGKDHPEDWSGTGTPPGCIQDDGAIHTNNQTMAGGTVFAISYQSDMSQVTMENLVVFSVLEHTPWKRIATYEVPADLPPCPDAGCICAWGWVPQGCGEPNMYMAGYKCKVTGSSSTKQLAQAQVPKYCANDTSECVGGAKQILVMNQADGNNVVAPDNDFVAYNEKWGFQNGAQNDIFM
notes: about 60 kDa glycosylated, about 30 kDa after Endo H; no dCTR
  Km: 0.79 mM
  kcat: 1.32 s⁻¹
